Data published in patent US20070160576A1, “IL-17A/F heterologous polypeptides and therapeutic uses thereof” (Genentech, Inc., priority 2001, published 2007).
Entries after “also recorded” stand apart in the source; their conditions may differ.

Tests used:
IL-17R [1] = biological target: T1, IL-17R (Homo sapiens, UniProt Q96F46); test: SPR (BIAcore) binding measurements; conditions: for SPR binding to IL-17R (in words): IL-17R in solution, cytokine immobilized
T1 construct: the extracellular domains (ECDs) of either of the two receptors IL-17R (designated PRO1) and IL-17RH1 (PRO5801)
Experimental: (§1) The kinetics and affinity of IL-17, IL-17E (PRO10272), or IL-17F (PRO20110) binding to IL-17R or IL-17RH1 (PRO5801) were determined by SPR measurements on a Pharmacia BIAcore 1000 instrument (Phamacia Biosensor, Piscataway N.J.). IL-17 ligand or receptor was immobilized onto a flow cell of a CM5 sensor chip via random coupling to amino groups, N-hydroxysuccinimide chemistry, by using a protocol developed by the manufacturer. An immobilization level of about 500 resonance units (RU) was obtained for IL-17R, IL-17RH1, and IL-17F, whereas IL-17 and IL-17E immobilization levels were 1200 and 1500 RU, respectively. A strong signal was obtained for IL-17R binding to immobilized IL-17. […] After blocking unreacted sites with ethanolamine, binding measurements were performed using a flow rate of 25 ┘L/min. Sensorgrams-were obtained for a series of six, two-fold serially diluted protein solutions. The highest concentration used was 1000 or 500 nM protein and the solutions were prepared in the running buffer, PBS containing 0.05% Tween-20. The sensor chip surface was regenerated between binding cycles by injection of a 25 ┘L aliquot of 0.1 M acetic acid, 0.2 M NaCl, pH 3 to elute non-covalent bound protein. Sensorgrams were evaluated according to a 1:1 binding model by non-linear regression analysis using software supplied by the manufacturer. In separate experiments to measure competition between IL-17 variants for binding receptors, a fixed concentration of receptor was incubated with a varied concentration of IL-17 protein followed by injection of this mixture onto a flow cell having immobilized IL-17 protein. The amount of bound receptor was determined from the resonance signal obtained after completion of the association phase.

IL-17RH1 (PRO5801) = biological target: T2, IL-17RH1 (PRO5801) (Homo sapiens, UniProt Q9NRM6); test: SPR (BIAcore) binding measurements; conditions: for Koff × 10^4: value is Koff × 10^4; for Kon × 10^−5: value is Kon × 10^−5
T2 construct: the extracellular domains (ECDs) of either of the two receptors IL-17R (designated PRO1) and IL-17RH1 (PRO5801)
T2 sequence (Q9NRM6 18-292 limits assumed): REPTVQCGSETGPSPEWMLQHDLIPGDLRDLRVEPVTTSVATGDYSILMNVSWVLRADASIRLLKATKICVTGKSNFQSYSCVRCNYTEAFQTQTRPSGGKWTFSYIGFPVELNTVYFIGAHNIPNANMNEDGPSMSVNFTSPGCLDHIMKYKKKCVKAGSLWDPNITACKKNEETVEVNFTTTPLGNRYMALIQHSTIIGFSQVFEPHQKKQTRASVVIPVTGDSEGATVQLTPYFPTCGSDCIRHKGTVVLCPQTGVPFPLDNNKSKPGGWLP
Experimental: as §1

[2] = biological target: human IL-17 receptor (IL-17R, PRO1) (Homo sapiens, UniProt Q96F46); test: Receptor/ligand interaction screening assay (immunoadhesin); format: binding
Experimental: (§2) In general, the assay is performed as follows. A PRO polypeptide of the present invention suspected of being a ligand for a receptor is expressed as a fusion protein containing the Fc domain of human IgG (an immunoadhesin). Receptor-ligand binding is detected by allowing interaction of the immunoadhesin polypeptide with cells (e.g. Cos cells) expressing candidate PRO polypeptide receptors and visualization of bound immunoadhesin with fluorescent reagents directed toward the Fc fusion domain and examination by microscope. Cells expressing candidate receptors are produced by transient transfection, in parallel, of defined subsets of a library of cDNA expression vectors encoding PRO polypeptides that may function as receptor molecules. Cells are then incubated for 1 hour in the presence of the PRO polypeptide immunoadhesin being tested for possible receptor binding. The cells are then washed and fixed with paraformaldehyde. The cells are then incubated with fluorescent conjugated antibody directed against the Fc portion of the PRO polypeptide immunoadhesin (e.g. FITC conjugated goat anti-human-Fc antibody). The cells are then washed again and examined by microscope. A positive interaction is judged by the presence of fluorescent labeling of cells transfected with cDNA encoding a particular PRO polypeptide receptor or pool of receptors and an absence of similar fluorescent labeling of similarly prepared cells that have been transfected with other cDNA or pools of cDNA. If a defined pool of cDNA expression vectors is judged to be positive for interaction with a PRO polypeptide immunoadhesin, the individual cDNA species that comprise the pool are tested individually (the pool is “broken down”) to determine the specific cDNA that encodes a receptor able to interact with the PRO polypeptide immunoadhesin.
(§3) In another embodiment of this assay, an epitope-tagged potential ligand PRO polypeptide (e.g., 8 histidine “His” tag) is allowed to interact with a panel of potential receptor PRO polypeptide molecules that have been expressed as fusions with the Fc domain of human IgG (immunoadhesins). Following a 1 hour co-incubation with the epitope tagged PRO polypeptide, the candidate receptors are each immunoprecipitated with protein A beads and the beads are washed. Potential ligand interaction is determined by Western blot analysis of the immunoprecipitated complexes with antibody directed towards the epitope tag. An interaction is judged to occur if a band of the anticipated molecular weight of the epitope tagged protein is observed in the Western blot analysis with a candidate receptor, but is not observed to occur with the other members of the panel of potential receptors.

TK-10 cells = test: IL-8 and IL-6 production in TK-10 cells (ELISA of conditioned media); format: cell-based, human; conditions: for IL-8 production: IL-8 ELISA
Experimental: Fractions were tested by incubation with TK-10 cells for 24 hours (0.033 microliters fraction/ml of cell culture media). Conditioned media was then collected and IL-8 and IL-6 concentration measurements were performed on each fraction by ELISA. […] Gels, blots, amino acid sequence and activity assays were run on this fraction (FIG. 3). Alternatively, fraction 31 and the remaining volume of fraction 32, from the HiLoad S Sepharose run were pooled and dialyzed against Buffer A for eight hours using a 10 kD cutoff membrane and passed through a 0.2 micron filter. […] Fractions 26-43 were assayed and protein concentrations were determined by amino acid analysis. Pure IL-17A/F was identified in fractions 31-33 as a single protein with apparent molecular mass of 30-35 kD. The concentrations of fractions 31, 32 and 33 were 0.258, 0.359 and 0.291 mg/ml respectively.
IL-17A/F, IL-17 and IL-17F were incubated with TK-10 cells at the indicated concentrations for 24 hours.
TK-10 conditioned media was collected and analyzed by IL-8 ELISA and IL-6 ELISA.

IL-17R [3] = biological target: T1, IL-17R; test: SPR competition for receptor binding to immobilized IL-17; conditions: IL-17R 500 nM; IL-17F at 2 ┘M
Experimental: as §1, with “The sensor chip surface was regenerated between binding cycles by injection of a 25 ┘L aliquot of 0.1 M acetic acid, 0.2 M NaCl, pH 3 to elute non-covalent bound protein.” left out, “In separate experiments to measure competition between IL-17 variants for binding receptors, a fixed concentration of receptor was incubated with a varied concentration of IL-17 protein followed by injection of this mixture onto a flow cell having immobilized IL-17 protein.” left out, “phase. […]” for “phase.”

[4] = biological target: T3, IL-17RH1 (PRO5801) extracellular domain, purified, monomeric (human, UniProt Q9NRM6 18-292); test: SPR (BIAcore), IL-17F immobilized
T3 construct: extracellular domain
T3 sequence (looked up): T2 sequence (Q9NRM6 18-292 limits assumed)
Experimental: (§4) Sensorgrams-were obtained for a series of six, two-fold serially diluted protein solutions. The highest concentration used was 1000 or 500 nM protein and the solutions were prepared in the running buffer, PBS containing 0.05% Tween-20. The sensor chip surface was regenerated between binding cycles by injection of a 25 ┘L aliquot of 0.1 M acetic acid, 0.2 M NaCl, pH 3 to elute non-covalent bound protein. Sensorgrams were evaluated according to a 1:1 binding model by non-linear regression analysis using software supplied by the manufacturer. […] The amount of bound receptor was determined from the resonance signal obtained after completion of the association phase.

[5] = biological target: T4, IL-17R on transfected Cos cells (human, UniProt Q96F46 33-866); test: binding to transfected Cos cells; data not shown
T4 construct: whole, on cells; also called Cos cells transfected with IL-17R

[6] = biological target: T3, IL-17RH1 (PRO5801) extracellular …; test: SPR (BIAcore 1000), IL-17E immobilized, 1:1 model
Experimental: as §4

IL-17RH1 = biological target: T5, IL-17RH1 (Homo sapiens, UniProt Q9NRM6); test: SPR competition for receptor binding to immobilized IL-17E; conditions: IL-17RH1 31 nM; IL-17F at 1.3 ┘M
T5 construct: the extracellular domains (ECDs) of either of the two receptors IL-17R (designated PRO1) and IL-17RH1 (PRO5801)
T5 sequence (Q9NRM6 18-292 limits assumed): T2 sequence (Q9NRM6 18-292 limits assumed)
Experimental: as §1, with “The sensor chip surface was regenerated between binding cycles by injection of a 25 ┘L aliquot of 0.1 M acetic acid, 0.2 M NaCl, pH 3 to elute non-covalent bound protein.” left out, “In separate experiments to measure competition between IL-17 variants for binding receptors, a fixed concentration of receptor was incubated with a varied concentration of IL-17 protein followed by injection of this mixture onto a flow cell having immobilized IL-17 protein.” left out, “phase. […]” for “phase.”

[7] = biological target: T3, IL-17RH1 (PRO5801) extracellular …; test: SPR (BIAcore 1000), IL-17RH1 immobilized, 1:1 model
[8] = biological target: T6, IL-17R (PRO1) extracellular domain, purified, monomeric (human, UniProt Q96F46 33-320); test: SPR (BIAcore)
T6 construct: extracellular domain; also called human IL-17 receptor
Experimental: as §4

[9] = biological target: T7, PRO5801 (human IL-17RH1 receptor) (Homo sapiens, UniProt Q9NRM6); test: Receptor/ligand interaction screening assay (immunoadhesin); format: binding
T7 sequence (Q9NRM6 18-502): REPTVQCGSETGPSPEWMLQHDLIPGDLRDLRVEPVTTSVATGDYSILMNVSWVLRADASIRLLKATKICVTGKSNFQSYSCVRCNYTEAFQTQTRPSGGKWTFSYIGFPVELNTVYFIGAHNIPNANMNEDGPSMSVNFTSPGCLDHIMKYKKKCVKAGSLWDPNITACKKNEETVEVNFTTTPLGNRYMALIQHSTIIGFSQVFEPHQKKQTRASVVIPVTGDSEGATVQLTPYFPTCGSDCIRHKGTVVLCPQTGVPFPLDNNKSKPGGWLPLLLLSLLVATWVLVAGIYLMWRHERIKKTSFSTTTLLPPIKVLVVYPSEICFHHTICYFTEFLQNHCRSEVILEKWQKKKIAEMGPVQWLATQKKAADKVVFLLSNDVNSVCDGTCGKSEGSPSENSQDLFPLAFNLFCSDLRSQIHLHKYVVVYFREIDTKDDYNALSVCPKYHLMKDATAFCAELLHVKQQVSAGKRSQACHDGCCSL
Experimental: as §2, §3

[10] = immobilized IL-17E, ligand IL-17RH1
[11] = immobilized IL-17RH1, ligand IL-17E

## IL-17: human IL-17 cytokine, SEQ ID NO:3
IL-17R [1]; IL-17R immobilized
  SPR signal for binding to immobilized IL-17R: weak signal
IL-17R [1]
  SPR binding to IL-17R (in words): strong signal; also recorded: modest binding affinity
IL-17R [1]; immobilized IL-17, ligand IL-17R, value is Koff × 10^4
  Koff × 10^4: 6.7 s^−1
IL-17R [1]; immobilized IL-17, ligand IL-17R, value is Kon × 10^−5
  Kon × 10^−5: 0.093 M^−1 s^−1
IL-17RH1 (PRO5801)
  SPR binding to IL-17RH1 (in words): no binding was observed
[2]
  binding to human IL-17 receptor (IL-17R, PRO1): binds to
TK-10 cells; TK-10 cells, 24 hours
  IL-8 production: production of IL-8
IL-17R [3]
  competition for binding of IL-17R to immobilized IL-17: efficiently block binding

## IL-17A/F: novel human cytokine, covalent heterodimer of one IL-17 chain and one IL-17F chain
TK-10 cells; IL-8 induction in TK-10 cells, greater activity than IL-17F
  difference in activity (potency) from IL-17 and IL-17F: roughly an order of magnitude
TK-10 cells; TK-10 cells, 24 hours, IL-6 ELISA
  IL-6 production: induced production of IL-6
TK-10 cells; TK-10 cells, 24 hours
  IL-8 production: robustly induced IL-8 production; also recorded: induce IL-8 production; also recorded: potent IL-8 inducing activity
TK-10 cells; TK-10 cells, 24 hours, listed as Fraction 38
  IL-8 production: robust activity

B1: human IL-17F (PRO20110) (ligand)
chain: RKIPKVGHTFFQKPESCPPVPGGSMKLDIGIINENQRVSMSRNIESRSTSPWNYTVTWDPNRYPSEVVQAQCRNLGCINAQGKEDISMNSVPIQQETLVVRRKHQGCSVSFQLEKVLVTVGCTCVTPVIHHVQ
notes: disulfide-linked homodimer, glycosylated at Asn 53
[4]
  binding result: no binding (tested: up to 0.5 µM (printed 0.5 ┘M))
[5]
  binding result: binds

B2: human IL-17E (PRO10272), protein used in SPR (ligand, UniProt Q9H293 33-177, looked up)
chain: YSHWPSCCPSKGQDTSEELLRWSTVPVPPLEPARPNRHPESCRASEDGPLNSRAISPWRYELDRDLNRLPQDLYHARCLCPHCVSLQTGSHMDPRGNSELLYHNQTVFYRRPCHGEKGTHKGYCLERRLYRVSLACVCVRPRVMG
notes: construct not described
[6]
  Kd: 1.1 nM
  koff: 0.0007 s⁻¹
  kon: 670000 M⁻¹ s⁻¹
IL-17RH1
  competition for binding of IL-17RH1 to immobilized IL-17E: completely inhibited
[7]
  Kd: 1.4 nM
  koff: 0.00062 s⁻¹
  kon: 430000 M⁻¹ s⁻¹
[8]
  binding result: no binding
IL-17R [1]
  SPR binding to IL-17R (in words): no binding was observed
IL-17RH1 (PRO5801)
  SPR binding to IL-17RH1 (in words): high affinity binding
IL-17RH1 (PRO5801); [10]
  Koff × 10^4: 7.0 s^−1
  Kon × 10^−5: 6.7 M^−1 s^−1
IL-17RH1 (PRO5801); [11]
  Koff × 10^4: 6.2 s^−1
  Kon × 10^−5: 4.3 M^−1 s^−1
[9]
  binding to IL-17RH1 receptor (PRO5801): binds to
